Reference: patent US20220323583A1, “Pharmaceutical Formulations of Bi-Specific Diabodies and Use of the Same” (MacroGenics, Inc., priority 2019, published 2022)

Key:
[1] = target: Cynomolgus CD3ε/δ (Macaca fascicularis, UniProt Q95LI5); experiment: Binding of DART-A to CD3 (ka, kd, KD); parameters: species or system cynomolgus monkey
[2] = test system: soluble recombinant human CD3 (shCD3-Fos-Jun); experiment: CD3 binding ELISA (relative potency); details: Relative Potency vs DART-A reference standard, 1250 ng/mL dosing solution, Stabilizer 2
Description: The two CD3 chains (delta and gamma) contain either the Fos protein or the Jun protein to enhance proper folding and functionality of the CD3 complex. […] The soluble CD3-Fos-Jun, was coated on the surface of an ELISA plate. […] Quantification of bound probe antibody was achieved by addition of a colorimetric AP substrate (AP-Yellow 1 Component Substrate). Oxidation of AP-Yellow by AP yields a colored product that can be read at 405±10 nm. The assay was quantified by the intensity of color, measured using a spectrophotometer set to an optimal wavelength of 405±10 nm. Data were fitted to a four-parameter model with the following variable constraints: the maximum, minimum and slope of each dose response curve is set to be shared between all dose response curves on the plate; the EC50 was determined independently for each curve.

[3] = test system: Kasumi-3; experiment: Redirected killing of target cell line; assay type: cell-based, human
[4] = pH; assay type: physicochemical; details: for pH: normal saline IV bag with Stabilizer 2
[5] = target: T1, recombinant Interleukin 3 Receptor (rhIL3-R) (Homo sapiens, UniProt P26951); experiment: CD123 binding ELISA (relative potency); details: Relative Potency vs DART-A reference standard, 1250 ng/mL dosing solution, Stabilizer 2
T1 construct: The soluble IL3R was coated on the surface of an ELISA plate
T1 sequence (P26951 19-305 limits assumed): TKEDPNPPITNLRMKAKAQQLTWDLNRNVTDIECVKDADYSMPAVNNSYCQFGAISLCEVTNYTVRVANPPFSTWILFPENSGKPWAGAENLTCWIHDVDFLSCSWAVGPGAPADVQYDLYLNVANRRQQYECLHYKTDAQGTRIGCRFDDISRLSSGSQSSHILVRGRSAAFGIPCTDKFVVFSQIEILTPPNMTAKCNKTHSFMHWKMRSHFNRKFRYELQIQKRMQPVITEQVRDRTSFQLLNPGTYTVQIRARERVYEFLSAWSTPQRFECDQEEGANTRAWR
Description: The soluble IL3R was coated on the surface of an ELISA plate. […] Quantification of bound probe antibody was achieved by addition of a colorimetric AP substrate (AP-Yellow 1 Component Substrate). Oxidation of AP-Yellow by AP yields a colored product that can be read at 405±10 nm. The assay was quantified by the intensity of color, measured using a spectrophotometer set to an optimal wavelength of 405±10 nm. Data were fitted to a four-parameter model with the following variable constraints: the maximum, minimum and slope of each dose response curve is set to be shared between all dose response curves on the plate; the EC50 was determined independently for each curve.

[6] = test system: HT29; experiment: Redirected killing of target cell line; assay type: cell-based; details: HT29 (CD123 negative)
[7] = test system: primary AML specimens (BMNC, PBMC); experiment: Incubation of primary AML bone marrow samples with DART-A; assay type: cell-based, human
Description: Upregulation of granzyme B and perforin levels in both CD8 and CD4 T cells was observed.

[8] = Capillary isoelectric focusing (cIEF), charge variants; assay type: physicochemical; details: for cIEF % AV (acidic variants) / cIEF % BV (basic variants) / cIEF % Main Peak: 0.1 mg/mL solution, Stabilizer 2
Method: cIEF analysis was performed to characterize drug product charge variants. The configuration included a iCE System with Alcott 720NV Autosampler. Samples were prepared to a final concentration of 0.1 mg/mL and centrifuged at 5±3° C. for 40 minutes prior to analysis.

[9] = Sub-visible particle count, light obscuration (HIAC); assay type: physicochemical; details: for Subvisible Particles by USP <788> ≥2 μm/mL / Subvisible Particles by USP <788> ≥10 μm/mL / Subvisible Particles by USP <788> ≥25 μm/mL: Stabilizer 2; for Particle Counts/mL ≥10 μm / Particle Counts/mL ≥25 μm: Study 1, dual-pump infusion
[10] = Post Infusion (Infusion Time = 48 Hrs)
[11] = Post Storage (T = 72 Hrs), room temperature
[12] = 10 ng/mL dosing solution, Post Infusion (Infusion Time = 48 Hrs)
[13] = 10 ng/mL dosing solution, Post Storage (T = 72 Hrs), room temperature
[14] = 10 ng/mL dosing solution, T = 0
[15] = 20 ng/mL dosing solution, Post Infusion (Infusion Time = 96 Hrs)
[16] = 20 ng/mL dosing solution, Post Storage (T =72 Hrs), room temperature
[17] = 20 ng/mL dosing solution, T = 0
[18] = 1250 ng/mL dosing solution, Post Infusion (Infusion Time = 48 Hrs)
[19] = 1250 ng/mL dosing solution, Post Storage (T = 72 Hrs), room temperature
[20] = 1250 ng/mL dosing solution, T = 0
[21] = Post Infusion (Infusion Time = 96 Hrs)
[22] = Post Storage (Time = 72 Hrs), room temperature
[23] = High (5000 ng/mL), T = 24 hours
[24] = High (5000 ng/mL), T = 48 hours
[25] = High (5000 ng/mL), T = 72 hours

Chain of soluble recombinant human CD3 (shCD3-Fos-Jun) (P07766 23-126 limits assumed): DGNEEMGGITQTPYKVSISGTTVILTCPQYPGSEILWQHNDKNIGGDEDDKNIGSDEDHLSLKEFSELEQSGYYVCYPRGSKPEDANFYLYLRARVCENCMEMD
Chain of Cynomolgus CD3ε/δ (Q95LI5 22-117 limits assumed): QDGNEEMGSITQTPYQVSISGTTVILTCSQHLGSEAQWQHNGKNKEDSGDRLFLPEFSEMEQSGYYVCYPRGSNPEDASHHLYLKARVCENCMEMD
Chain of Cynomolgus CD3ε/δ (Q95LI8 22-105 partner limits assumed): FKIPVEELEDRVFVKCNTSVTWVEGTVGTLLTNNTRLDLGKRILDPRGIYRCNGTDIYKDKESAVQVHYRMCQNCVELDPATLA

B1: DART-A: sequence-optimized CD123×CD3 bispecific diabody; chains SEQ ID NO:42 and SEQ ID NO:44 covalently bonded by a disulfide bond (protein)
chain 1: QAVVTQEPSLTVSPGGTVTLTCRSSTGAVTTSNYANWVQQKPGQAPRGLIGGTNKRAPWTPARFSGSLLGGKAALTITGAQAEDEADYYCALWYSNLWVFGGGTKLTVLGGGGSGGGGEVQLVQSGAELKKPGASVKVSCKASGYTFTDYYMKWVRQAPGQGLEWIGDIIPSNGATFYNQKFKGRVTITVDKSTSTAYMELSSLRSEDTAVYYCARSHLLRASWFAYWGQGTLVTVSSGGCGGGEVAALEKEVAALEKEVAALEKEVAALEK
chain 2: DFVMTQSPDSLAVSLGERVTMSCKSSQSLLNSGNQKNYLTWYQQKPGQPPKLLIYWASTRESGVPDRFSGSGSGTDFTLTISSLQAEDVAVYYCQNDYSYPYTFGQGTKLEIKGGGSGGGGEVQLVESGGGLVQPGGSLRLSCAASGFTFSTYAMNWVRQAPGKGLEWVGRIRSKYNNYATYYADSVKDRFTISRDDSKNSLYLQMNSLKTEDTAVYYCVRHGNFGNSYVSWFAYWGQGTLVTVSSGGCGGGKVAALKEKVAALKEKVAALKEKVAALKE
modifications: interchain disulfide bond; First Polypeptide Chain of DART-A; Second Polypeptide Chain of DART-A
[1]
  ka (± SD): 5.5 (± 0.5) × 10^5 M^−1s^−1
  kd (± SD): 5.0 (± 0.9) × 10^−3 s^−1
[1]; read-out: KD (± SD)
  Kd: 9.2 ± 2.3 nM
[2]; [10]
  % Potency, CD3 binding: 92%
[2]; [11]
  % Potency, CD3 binding: 101%
[2]; T = 0
  % Potency, CD3 binding: 111%
[3]
  Max % Killing: 94%
[4]; [12]
  pH: 8.1
[4]; [13]
  pH: 8.1
[4]; [14]
  pH: 8.1
[4]; [15]
  pH: 7.9
[4]; [16]
  pH: 8.1
[4]; [17]
  pH: 8.1
[4]; [18]
  pH: 8.0
[4]; [19]
  pH: 8.0
[4]; [20]
  pH: 8.0
[4]; Stabilizer 2 dosing solutions
  changes in pH, visual appearance and osmolality post-infusion vs T=0: no significant changes in pH, visual appearance, and osmolality
[5]; [10]
  % Potency, CD123 binding: 123%
[5]; [11]
  % Potency, CD123 binding: 140%
[5]; T = 0
  % Potency, CD123 binding: 146%
[6]
  Max % Killing: No activity
[6]; E:T = 10:1
  EC50, redirected killing: No activity
[7]
  leukemic cell population: depletion of the leukemic cell population over time
  residual T cells (CD4 and CD8): expansion of the residual T cells
[8]; 0.1 mg/mL in Stabilizer 2 dosing solution, 72-hour RT storage and administration
  charge heterogeneity by cIEF: minor changes within the variability of the analytical method
[8]; [21]
  cIEF % AV (acidic variants): 31.4%
  cIEF % BV (basic variants): 3.4%
  cIEF % Main Peak: 65.2%
[8]; [22]
  cIEF % AV (acidic variants): 29.1%
  cIEF % BV (basic variants): 3.9%
  cIEF % Main Peak: 67.0%
[8]; T = 0 Hrs
  cIEF % AV (acidic variants): 28.3%
  cIEF % BV (basic variants): 4.4%
  cIEF % Main Peak: 67.3%
[9]; [12]
  Subvisible Particles by USP <788> ≥2 μm/mL: 140 mL⁻¹
  Subvisible Particles by USP <788> ≥10 μm/mL: 2 mL⁻¹
  Subvisible Particles by USP <788> ≥25 μm/mL: 1 mL⁻¹
[9]; [13]
  Subvisible Particles by USP <788> ≥2 μm/mL: 192 mL⁻¹
  Subvisible Particles by USP <788> ≥10 μm/mL: 10 mL⁻¹
  Subvisible Particles by USP <788> ≥25 μm/mL: 1 mL⁻¹
[9]; [14]
  Subvisible Particles by USP <788> ≥2 μm/mL: 206 mL⁻¹
  Subvisible Particles by USP <788> ≥10 μm/mL: 7 mL⁻¹
  Subvisible Particles by USP <788> ≥25 μm/mL: 1 mL⁻¹
[9]; [15]
  Subvisible Particles by USP <788> ≥2 μm/mL: 85 mL⁻¹
  Subvisible Particles by USP <788> ≥10 μm/mL: 9 mL⁻¹
  Subvisible Particles by USP <788> ≥25 μm/mL: 3 mL⁻¹
[9]; [16]
  Subvisible Particles by USP <788> ≥2 μm/mL: 412 mL⁻¹
  Subvisible Particles by USP <788> ≥10 μm/mL: 8 mL⁻¹
  Subvisible Particles by USP <788> ≥25 μm/mL: 0 mL⁻¹
[9]; [17]
  Subvisible Particles by USP <788> ≥2 μm/mL: 344 mL⁻¹
  Subvisible Particles by USP <788> ≥10 μm/mL: 8 mL⁻¹
  Subvisible Particles by USP <788> ≥25 μm/mL: 0 mL⁻¹
[9]; [18]
  Subvisible Particles by USP <788> ≥2 μm/mL: 188 mL⁻¹
  Subvisible Particles by USP <788> ≥10 μm/mL: 4 mL⁻¹
  Subvisible Particles by USP <788> ≥25 μm/mL: 1 mL⁻¹
[9]; [19]
  Subvisible Particles by USP <788> ≥2 μm/mL: 146 mL⁻¹
  Subvisible Particles by USP <788> ≥10 μm/mL: 7 mL⁻¹
  Subvisible Particles by USP <788> ≥25 μm/mL: 1 mL⁻¹
[9]; [20]
  Subvisible Particles by USP <788> ≥2 μm/mL: 664 mL⁻¹
  Subvisible Particles by USP <788> ≥10 μm/mL: 21 mL⁻¹
  Subvisible Particles by USP <788> ≥25 μm/mL: 1 mL⁻¹
[9]; Stabilizer 2 dosing solutions
  subvisible particle counts ≥2 μm, ≥10 μm and ≥25 μm post-infusion vs T=0: did not increase
[9]; High (5000 ng/mL), T = 0
  Particle Counts/mL ≥10 μm: 14 Counts/mL
  Particle Counts/mL ≥25 μm: 1 Counts/mL
[9]; [23]
  Particle Counts/mL ≥10 μm: 2 Counts/mL
  Particle Counts/mL ≥25 μm: 1 Counts/mL
[9]; [24]
  Particle Counts/mL ≥10 μm: 0 Counts/mL
  Particle Counts/mL ≥25 μm: 0 Counts/mL
[9]; [25]
  Particle Counts/mL ≥10 μm: 0 Counts/mL
  Particle Counts/mL ≥25 μm: 0 Counts/mL
[9]; Low (100 ng/mL), T = 0
  Particle Counts/mL ≥10 μm: 5 Counts/mL
  Particle Counts/mL ≥25 μm: 0 Counts/mL
[9]; Low (100 ng/mL), T = 24 hours
  Particle Counts/mL ≥10 μm: 4 Counts/mL
  Particle Counts/mL ≥25 μm: 1 Counts/mL
[9]; Low (100 ng/mL), T = 48 hours
  Particle Counts/mL ≥10 μm: 7 Counts/mL
  Particle Counts/mL ≥25 μm: 0 Counts/mL
[9]; Low (100 ng/mL), T = 72 hours
  Particle Counts/mL ≥10 μm: 1 Counts/mL
  Particle Counts/mL ≥25 μm: 0 Counts/mL
